Laboratory results taken from PMC9513282.
HiLyteFluor 488 = N-terminal fluorophore; QXL 520 = dark quencher

Assays:
[1] = target: AMUC_1438 FL construct (Akkermansia muciniphila) (UniProt B2UKY7)
[2] = target: AMUC_1438 CAT construct (residues 41-427) (Akkermansia muciniphila) (UniProt B2UKY7)

{HiLyteFluor 488}-TPSPSTPPTK-{QXL 520} (not fully specified (residue 5); printed as TPSP**S**TPPTK) [IgA1FRET, custom FRET O-glycopeptide substrate based on the IgA1 hinge region]
KM of hydrolysis of the IgA1FRET O-glycopeptide (FRET dequenching, steady-state kinetics, Michaelis-Menten fit; 1 μM enzyme, 0 to 1000 μM substrate, 20 mM Tris-HCl pH 7.0, 100 μM zinc chloride) [1]: 122 μM | KM of hydrolysis of the IgA1FRET O-glycopeptide (FRET dequenching, steady-state kinetics, Michaelis-Menten fit; 1 μM enzyme, 0 to 1000 μM substrate, 20 mM Tris-HCl pH 7.0, 100 μM zinc chloride) [2]: 300 μM
